Data on ten substances can be found in paper PMC6061880.

What all share (test): EMSA
Conditions in all cases: 10 mM Tris-Cl pH 7.5, 10 mM MgCl2, 100 mM KCl, 0.5 ug/ul yeast RNA, 7.5% glycerol, SUPERase In; 5 nM RNA; 30 min at 37 C; 6% native PAGE at 4 C
Background: A gel shift assay detects complexes by their altered migration in electrophoresis.

The test system of data set [1] is T1, RsmN (Pseudomonas aeruginosa), ORF:fe30c157.
T1 sequence: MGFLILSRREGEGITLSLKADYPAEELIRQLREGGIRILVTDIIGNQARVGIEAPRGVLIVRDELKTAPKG

Data set [2] concerns the target RsmA (Pseudomonas aeruginosa) (UniProt O69078).
The subject of data set [3] is RsmN (Pseudomonas aeruginosa).

RsmA (Pseudomonas aeruginosa), sequence (O69078 whole entry): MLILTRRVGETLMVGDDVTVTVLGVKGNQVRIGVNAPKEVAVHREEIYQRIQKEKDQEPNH

The term Kd denotes a measure of binding affinity in units of concentration. A higher Kd goes with a looser complex. In data set [1], “GGACAAAAUAAGCAAAUGGAGCGUAUGACCAUGGACAAACCGGCCUCGCGGCAUUUCAGCGUCUUGAUCAUCGAUGAUGAACCCCAGGUGACCUCGGAACUCCGCGAACUGCUGGAAAACGGGGGGGGGUUUUUUUU [pprB leader RNA]” gave a Kd of 227 nM. In addition, the binding result in data set [2] is “binds”.

Substance 5' CrcZ gave a Kd in data set [3] of 112 nM.

The substance pprB leader RNA came in with a Kd in data set [3] of 227 nM.

Turning to “GGGUCAGGACAUUGCGCAGGAAGCGCCAAAGACAAUACGGAAACUCAGGGAAUCCACCAUGGAUGGUGGCGUAGCACGGAUGUCAGGAUAGAGGUCUGCAAAACCCCGCCCAAAAGGCGGGGGGGGGUUUUUUUU [RsmY full length]”, the binding result in data set [1] and in data set [2] was “binds” throughout.

fhA1 leader RNA yielded a Kd in data set [3] of 61 nM.

In data set [1], “GGUAACGACUCCAGCACAACAAAAACAAAAUCGCGGAGGCGCAGCUAACUGAUUCUUUUGGAGAGGAGUUGCUGUCGGGACCCGUCCCGCAGCCAGUCGGAAGAAGAAUAAAACUGCCUUGAGGCAGCGCACAGACUGGUUGGAUCGCUCGACGAUCAUGGCAGCAUCAGGGGGGGGGUUUUUUUU [5' CrcZ]” displayed a Kd of 112 nM. For the same substance, in data set [2], the binding result is on record as “no binding”.

With pslA RNA (non-specific), the Kd in data set [3] is > 1000 nM.

Take “GGCAUCAGCGACCAAAGCAAUCCGUUUGCUAUUGAACUCCCAGCCUGGGAGAUAUCCCUGAAGCGACUGGCUCAAGGGACGGGUCGACAAACAAAAACAACAAGCCCGAAAUCAUAAUAAAAACAAAGCACGCACCUACUUGGGGGGGGGUUUUUUUU [3' CrcZ]”: the binding entry in data set [1] is “no binding”; in data set [2] it was “binds”.

For the substance mucA internal RNA, the Kd in data set [3] was determined as 148 nM.

Regarding “GGAAACUCUGUCCGCUGUGAUGGAUAACGAAGCGGAUGAACUCGAGUUGCGGCGGGUGCUCGCAGCUUGCGGCGAGGAUGCCGAGCUGCGUUCCACCUGGUCGCGUUACCAGUUGGCGCGGUCCGUCAUGCACCGCGAGCCUACCCUGCCGAAGCUGGAUAUCGCUGCGGCGGUCUCUGCUGCCCUGGCCGACGAGGCCGCUCCGCCGAAAGCGGAGAAGGGACCGUGGCGGAUGGUCGGUCGGGGGGGGGUUUUUUUU [mucA internal RNA]”, the Kd in data set [1] is 148 nM; in data set [2], “binds”.
